The values that follow come from article PMC2763920 (Electrophoresis, 2009).

Test [1] deals with T1, GST-Fyn-SH3-SH2 (fluorescein on the N-terminus; phosphotyrosine (pY) at position 7 of the printed letters). Briefly: high-speed capillary electrophoresis.
The target of test [2] is T1, GST-Fyn-SH3-SH2. Briefly: fluorescence polarisation. (In fluorescence polarisation assays a small probe gives low polarisation when free and higher when bound to something large.)
Test [3] deals with T1, GST-Fyn-SH3-SH2. Kind of test: high-speed capillary electrophoresis. This is another data set of the same source.

“And” between values parts separate entries of the source, which are not always exact repeats. Identical values can stand only once. Square brackets hold non-standard residues; d marks the D form. Ends that are not written are not given here. pY = N[C@@H](Cc1ccc(OP(=O)(O)O)cc1)C(=O)O

A word on the stoichiometry N: it is a count of units in the complex or per binding partner.

Regarding fluorescein-EEEEPQ[pY]EEIPIYL [Fluor-Fyn peptide (fluorescein-EEEEPQpYEEIPIYL)], in test [1], the “t1/2 of complex 1” value worked out at 22 s and the “t1/2 of complex 2” value came out at 58.8 s. Also, in test [2], the “t1/2, two component decay, first component” value came to 3.3 s; the “t1/2, two component decay, second component” value amounted to 59.5 s; the “t1/2 of the complex, single exponential decay” value was determined as 21.2 ± 1.3 s. Besides, the “stoichiometry N” value in test [3] is 0.5 peptide per protein (printed 2:1 protein: peptide, complex 1) and 1 peptide per protein (printed 2:2 protein: peptide, complex 2).
